From the PETadex activity labels (doi:10.1016/j.jhazmat.2023.131574) come the findings set out here.

First the molecules themselves.
B1: unnamed (protein)
chain: MSNGYSACPAPYDHRGMRKHASLLAALPVLLAACGTTTSTLTTPAVTPQTLSGAATNPYERGPAPTTALLEAARGPYATASTTVPRSSVSDFGGATIYYPTSTADGTFGGVAISPGYTGTQASVAWLGPRLASHGFVVIVIDTLSRYDYPSSRGDQLRAALRYLTTSSAVRTRVDATRLAVMGHSMGGGGALEAAKDNPALKAAIPLTPWNTDKSWPELTTPTLIFGAQNDSVAPVSSHAIPFYTSLASTLPKAYLELRGASHGAPTSTNTTIAKYAVAWLKRFEDADRRYDPFLCPTPAVSTLLSDARSTCPFN
B2: unnamed (protein)
chain: MSNGYSACPAPYDHRGMRKHASLLAALPVLLAACGTTTSTLTTPAVTPQTLSGAATNPYERGPAPTTALLEAARGPYATASTTVPRSSVSDFGGATIYYPTSTADGTFGGVAISPGYTGTQASVAWLGPRLASHGFVVIVIDTLSRYDYPSSRGDQLRAALRYLTTSSAVRTRVDATRLAVMGHSMGGGGALEAAKDNPALKAAIPLTPWNTDKSWPELTTPTLIFGAQNDSVAPVSSHAIPFYTSLASTLPKAYLELRGASHGAPTSTNTTIAKYAVAWLKRFDADARRYDPFLCPTPAVSTLLSDARSTCPFN
B3: unnamed (protein)
chain: MDGVLWRVRTAALMAALLALAAWALVWASPSVEAQSNPYQRGPNPTRSALTADGPFSVATYTVSRLSVSGFGGGVIYYPTGTSLTFGGIAMSPGYTADASSLAWLGRRLASHGFVVLVINTNSRFDGPDSRASQLSAALNYLRTSSPSAVRARLDANRLAVAGHSMGGGGTLRIAEQNPSLKAAVPLTPWHTDKTFNTSVPVLIVGAEADTVAPVSQHAIPFYQNLPSTTPKVYVELCNASHIAPNSNNAAISVYTISWMKLWVDNDTRYRQFLCNVNDPALCDFRTNNRHCQ

Substrate in the first series: p-NP-C10
Test: not given
The note with it: 50 °C.
Take B1: the Km turned out to be 930 µM, the kcat amounted to 2.47 s⁻¹ and the catalytic efficiency (kcat/Km) was determined as 2660 M⁻¹ s⁻¹.

Substrate in another series: p-NP-C2
Test: not given
The following applies: 50 °C.
Take B1: the Michaelis constant (Km) came out at 900 µM, the turnover number (kcat) amounted to 27.5 s⁻¹ and the kcat/Km was found to be 30600 M⁻¹ s⁻¹.

Substrate in another series: p-NP-C4
Test: not given
The note with it: 50 °C.
B1: the Km amounted to 190 µM, the turnover number (kcat) was 30.8 s⁻¹ and the specificity constant (kcat/Km) is 162000 M⁻¹ s⁻¹.

Substrate in the next series: p-NP-C8
Test: not given
The following applies: 50 °C.
B1: the Km is 1290 µM, the kcat was determined as 11.3 s⁻¹ and the kcat/Km amounted to 8780 M⁻¹ s⁻¹.

Substrate in the next series: PCL; PBS; PHA; PLA; PUR
Description: Proxy for plastic degradation [Weight/mass loss]. The following applies: pH 7; 24 h.
For B2, the “Proxy for plastic degradation” value is 79%.

Substrate in the next series: p-NP-C10
Test: not given
The note with it: 60 °C.
Turning to B3, the Km stood at 2680 µM, the kcat is 8.11 s⁻¹ and the kcat/Km was 3030 M⁻¹ s⁻¹.

Substrate in the next series: p-NP-C2
Test: not given
The note with it: 60 °C.
Consider B3, for which the Michaelis constant (Km) is 7310 µM, the kcat was 159 s⁻¹ and the kcat/Km is 21800 M⁻¹ s⁻¹.

Substrate in another series: p-NP-C4
Test: not given
The following applies: 60 °C.
Take B3: the Km was 760 µM, the catalytic constant (kcat) amounted to 137 s⁻¹ and the kcat/Km is 180000 M⁻¹ s⁻¹.

Substrate in a further series: p-NP-C8
Test: not given
The note with it: 60 °C.
Turning to B3, the Km is 7440 µM, the kcat was determined as 107 s⁻¹ and the kcat/Km is 14300 M⁻¹ s⁻¹.
